The record followed here is patent US20110091971A1, “Differentiation of Pluripotent Stem Cells” (priority 2008, published 2011).

Positions count from the first letter of the chain named.

This assay has as its system H1 or H9 human embryonic stem cells. The assay can be described thus: Activin A bioassay: differentiation of human embryonic stem cells to definitive endoderm, cell number and SOX17 intensity by high content analysis (96-well, four days).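 On Cell Number average: Raw total cell count per well from high content imaging.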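 On Sox 17 Intensity average: total fluorescence of the cell multiplied by cell area.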 The following applies: for Sox 17 Intensity % of control: control = R&D Sys Activin A 100 ng/ml on same plate. It counts as cell-based. The gist of the method:
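Read-out was cell count and integrated SOX17 immunofluorescence by high-content imaging, with each well divided by the mean of the 100 ng/ml activin A control. Over the four-day culture, test samples were given in DMEM:F12 with 0.5% FCS plus 20 ng/ml Wnt3a for the first two days and in 2% FCS alone for the last two. Cells were H1 or H9 hESC clusters grown on Matrigel.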

Where [1] appears, read: supernatant concentration 10x, assay dilution 1:20, assay plates #007, #009, #010.
[2] abbreviates: supernatant concentration 10x, assay dilution 1:20.
[3] abbreviates: supernatant concentration 50x, assay dilution 1:20, assay plates #008, #009.
Where [4] appears, read: supernatant concentration 50x, assay dilution 1:20.
Setting [5] is: supernatant concentration 1x, assay dilution 1:20.
Where [6] appears, read: supernatant concentration 10x, assay dilution 1:40.

B1: ACTN27: activin A variant peptide, SEQ ID 28 (protein)
chain: GLECDGKVNLCCKKQLFVSFKDIGWNDWIIAPSGYHANHCDGKCPSHIAGTSGSSLSFHSTVINHYRMRGHSPFANRGACCIPTKLRPMSMLYYDDGQNIIKKDIQNMIVEECGCS
Regarding B1, the “Cell Number average” value is, setting by setting: under setting [1], 6664; under setting [3], 6857. Also, the “Sox 17 Intensity average” value is given as 1.39E+07 under setting [1] and 2.82E+07 under setting [3]. Moreover, the “Sox 17 Intensity % of control” value was 55.7% under setting [2] and 113.1% under setting [4].

B2: ACTN42: activin A variant peptide, SEQ ID 43 (protein)
chain: B1 chain with L10Y, L16D, H39K, D41S, A75S, N76D, R77M, A79S
Regarding B2, the “Cell Number average” value by setting is: under setting [1], 9937; under setting [3], 7805. The “Sox 17 Intensity average” value amounted to 3.45E+06 under setting [1] and 7.53E+06 under setting [3]. Moreover, the “Sox 17 Intensity % of control” value is, setting by setting: under setting [2], 13.8%; under setting [4], 30.2%.

B3: ACTN5: activin A variant peptide, SEQ ID 6 (protein)
chain: B1 chain with L10Y, L16N, H39E, D41S, A75S, R77L
As for B3, the “Cell Number average” value is, setting by setting: under setting [5], 1261; under setting [2], 1396; under setting [6], 1382. The “Sox 17 Intensity average” value came to 1.111E+07 under setting [5], 1.031E+07 under setting [2] and 1.311E+07 under setting [6]. In addition, the “Sox 17 Intensity % of control” value is, setting by setting: under setting [5], 6.0%; under setting [2], 5.6%; under setting [6], 7.1%.

B4: ACTN66: activin A variant peptide, SEQ ID 67 (protein)
chain: GLECDGKVNICCKKQMFGQAKDIGWNDWIIAPSGYHGGGCTGECPSHIAGTSGSSLSFHSTVINHYRMRGHSPWANLKSCCSPTKLRPMSMLYYDDGQNIIKKDIQNMVVEECGCT
With B4, the “Cell Number average” value is, setting by setting: under setting [1], 13360; under setting [3], 16460. The “Sox 17 Intensity average” value was 4.84E+05 under setting [1] and 3.39E+06 under setting [3]. Moreover, the “Sox 17 Intensity % of control” value worked out at 2.2% under setting [2] and 6.1% under setting [4].

B5: ACTN60: activin A variant peptide, SEQ ID 61 (protein)
chain: B4 chain with M16S, A20T, T41S, S82A, T116V
With B5, the “Cell Number average” value under setting [1] was determined as 8303 and the “Cell Number average” value under setting [3] turned out to be 10603. Also, the “Sox 17 Intensity average” value reads like this: under setting [1], 5.90E+05; under setting [3], 3.73E+06. Besides, the “Sox 17 Intensity % of control” value runs as follows: under setting [2], 2.4%; under setting [4], 15.0%.

B6: ACTN86: activin A variant peptide, SEQ ID 87 (protein)
chain: B4 chain with M16S, Q19K, A20T, T41S
On to B6, for which the “Cell Number average” value under setting [1] came to 11821 and the “Cell Number average” value under setting [3] turned out to be 17034. In addition, the “Sox 17 Intensity average” value amounted to 7.45E+05 under setting [1] and 2.34E+06 under setting [3]. Further, the “Sox 17 Intensity % of control” value is, setting by setting: under setting [2], 3.4%; under setting [4], 4.2%.

B7: ACTN83: activin A variant peptide, SEQ ID 84 (protein)
chain: B4 chain with M16S, Q19R, W74F, N107G, V109K
On to B7, for which the “Cell Number average” value is, setting by setting: under setting [1], 12084; under setting [3], 15829. The “Sox 17 Intensity average” value is listed as 5.39E+05 under setting [1] and 9.01E+06 under setting [3]. The “Sox 17 Intensity % of control” value is, setting by setting: under setting [2], 2.4%; under setting [4], 16.3%.

B8: ACTN80: activin A variant peptide, SEQ ID 81 (protein)
chain: B4 chain with M16S, A20T, T41S, S82A, V109K, T116V
On to B8, for which the “Cell Number average” value runs as follows: under setting [1], 9898; under setting [3], 14686. For the same molecule, the “Sox 17 Intensity average” value under setting [1] turned out to be 4.08E+05 and the “Sox 17 Intensity average” value under setting [3] was 3.52E+06. Moreover, the “Sox 17 Intensity % of control” value by setting is: under setting [2], 1.8%; under setting [4], 6.4%.

B9: ACTN92: activin A variant peptide, SEQ ID 93 (protein)
chain: B4 chain with M16S, T41S, W74F, N107G, V109K
Turning to B9, the “Cell Number average” value runs as follows: under setting [1], 14298; under setting [3], 15009. For the same molecule, the “Sox 17 Intensity average” value under setting [1] was found to be 5.60E+05 and the “Sox 17 Intensity average” value under setting [3] worked out at 3.32E+06. For the same molecule, the “Sox 17 Intensity % of control” value by setting is: under setting [2], 2.5%; under setting [4], 6.0%.

B10: ACTN70: activin A variant peptide, SEQ ID 71 (protein)
chain: B4 chain with M16L, T41S, W74V, N107G
Consider B10, for which the “Cell Number average” value under setting [1] worked out at 12551 and the “Cell Number average” value under setting [3] is recorded as 16071. Besides, the “Sox 17 Intensity average” value under setting [1] is listed as 9.67E+05 and the “Sox 17 Intensity average” value under setting [3] was 3.20E+06. Further, the “Sox 17 Intensity % of control” value stood at 4.4% under setting [2] and 5.8% under setting [4].

B11: ACTN68: activin A variant peptide, SEQ ID 69 (protein)
chain: B4 chain with M16S, Q19K, W74F, N107G, V109K
B11: the “Cell Number average” value is, setting by setting: under setting [1], 13395; under setting [3], 15926. The “Sox 17 Intensity average” value reads like this: under setting [1], 1.43E+06; under setting [3], 1.83E+06. Moreover, the “Sox 17 Intensity % of control” value was 6.5% under setting [2] and 3.3% under setting [4].

B12: ACTN93: activin A variant peptide, SEQ ID 94 (protein)
chain: B4 chain with M16S, A20T, W74F, V109K
For B12, the “Cell Number average” value under setting [1] was 13409 and the “Cell Number average” value under setting [3] was 15900. For the same molecule, the “Sox 17 Intensity average” value is 5.87E+05 under setting [1] and 2.67E+06 under setting [3]. For the same molecule, the “Sox 17 Intensity % of control” value was determined as 2.7% under setting [2] and 4.8% under setting [4].

B13: ACTN88: activin A variant peptide, SEQ ID 89 (protein)
chain: B4 chain with M16S, A20T, T41S
With B13, the “Cell Number average” value reads like this: under setting [1], 11583; under setting [3], 15317. Besides, the “Sox 17 Intensity average” value came out at 6.21E+05 under setting [1] and 2.87E+06 under setting [3]. Besides, the “Sox 17 Intensity % of control” value is, setting by setting: under setting [2], 2.8%; under setting [4], 5.2%.

B14: ACTN72: activin A variant peptide, SEQ ID 73 (protein)
chain: B4 chain with M16L, G39S, W74N
For B14, the “Cell Number average” value is given as 14638 under setting [1] and 16810 under setting [3]. In addition, the “Sox 17 Intensity average” value is on record as 3.44E+06 under setting [1] and 6.51E+06 under setting [3]. The “Sox 17 Intensity % of control” value is recorded as 13.8% under setting [2] and 26.1% under setting [4].

B15: ACTN73: activin A variant peptide, SEQ ID 74 (protein)
chain: B4 chain with M16S, T41S, W74F, N107G
B15: the “Cell Number average” value is 10569 under setting [1] and 16351 under setting [3]. Moreover, the “Sox 17 Intensity average” value under setting [1] turned out to be 8.27E+05 and the “Sox 17 Intensity average” value under setting [3] worked out at 3.13E+06. Further, the “Sox 17 Intensity % of control” value is, setting by setting: under setting [2], 3.7%; under setting [4], 5.7%.

B16: ACTN61: activin A variant peptide, SEQ ID 62 (protein)
chain: B4 chain with M16L, A20T, G39S, W74N, V109K
Consider B16, for which the “Cell Number average” value under setting [1] came to 15268 and the “Cell Number average” value under setting [3] turned out to be 15256. The “Sox 17 Intensity average” value is reported as 1.70E+06 under setting [1] and 7.18E+06 under setting [3]. Moreover, the “Sox 17 Intensity % of control” value came out at 6.8% under setting [2] and 28.8% under setting [4].

B17: ACTN67: activin A variant peptide, SEQ ID 68 (protein)
chain: B4 chain with M16S, A20T, T41S, V109K
In the case of B17, the “Cell Number average” value worked out at 12653 under setting [1] and 14821 under setting [3]. In addition, the “Sox 17 Intensity average” value stood at 4.44E+05 under setting [1] and 3.50E+06 under setting [3]. In addition, the “Sox 17 Intensity % of control” value reads like this: under setting [2], 2.0%; under setting [4], 6.3%.
